The text below walks through data of PMC4530019.

This test deals with cardiac ryanodine receptor (RyR2) (rat (endogenous in ventricular myocytes)) (UniProt B0LPN4).
UniProt B0LPN4, sequence (B0LPN4 whole entry): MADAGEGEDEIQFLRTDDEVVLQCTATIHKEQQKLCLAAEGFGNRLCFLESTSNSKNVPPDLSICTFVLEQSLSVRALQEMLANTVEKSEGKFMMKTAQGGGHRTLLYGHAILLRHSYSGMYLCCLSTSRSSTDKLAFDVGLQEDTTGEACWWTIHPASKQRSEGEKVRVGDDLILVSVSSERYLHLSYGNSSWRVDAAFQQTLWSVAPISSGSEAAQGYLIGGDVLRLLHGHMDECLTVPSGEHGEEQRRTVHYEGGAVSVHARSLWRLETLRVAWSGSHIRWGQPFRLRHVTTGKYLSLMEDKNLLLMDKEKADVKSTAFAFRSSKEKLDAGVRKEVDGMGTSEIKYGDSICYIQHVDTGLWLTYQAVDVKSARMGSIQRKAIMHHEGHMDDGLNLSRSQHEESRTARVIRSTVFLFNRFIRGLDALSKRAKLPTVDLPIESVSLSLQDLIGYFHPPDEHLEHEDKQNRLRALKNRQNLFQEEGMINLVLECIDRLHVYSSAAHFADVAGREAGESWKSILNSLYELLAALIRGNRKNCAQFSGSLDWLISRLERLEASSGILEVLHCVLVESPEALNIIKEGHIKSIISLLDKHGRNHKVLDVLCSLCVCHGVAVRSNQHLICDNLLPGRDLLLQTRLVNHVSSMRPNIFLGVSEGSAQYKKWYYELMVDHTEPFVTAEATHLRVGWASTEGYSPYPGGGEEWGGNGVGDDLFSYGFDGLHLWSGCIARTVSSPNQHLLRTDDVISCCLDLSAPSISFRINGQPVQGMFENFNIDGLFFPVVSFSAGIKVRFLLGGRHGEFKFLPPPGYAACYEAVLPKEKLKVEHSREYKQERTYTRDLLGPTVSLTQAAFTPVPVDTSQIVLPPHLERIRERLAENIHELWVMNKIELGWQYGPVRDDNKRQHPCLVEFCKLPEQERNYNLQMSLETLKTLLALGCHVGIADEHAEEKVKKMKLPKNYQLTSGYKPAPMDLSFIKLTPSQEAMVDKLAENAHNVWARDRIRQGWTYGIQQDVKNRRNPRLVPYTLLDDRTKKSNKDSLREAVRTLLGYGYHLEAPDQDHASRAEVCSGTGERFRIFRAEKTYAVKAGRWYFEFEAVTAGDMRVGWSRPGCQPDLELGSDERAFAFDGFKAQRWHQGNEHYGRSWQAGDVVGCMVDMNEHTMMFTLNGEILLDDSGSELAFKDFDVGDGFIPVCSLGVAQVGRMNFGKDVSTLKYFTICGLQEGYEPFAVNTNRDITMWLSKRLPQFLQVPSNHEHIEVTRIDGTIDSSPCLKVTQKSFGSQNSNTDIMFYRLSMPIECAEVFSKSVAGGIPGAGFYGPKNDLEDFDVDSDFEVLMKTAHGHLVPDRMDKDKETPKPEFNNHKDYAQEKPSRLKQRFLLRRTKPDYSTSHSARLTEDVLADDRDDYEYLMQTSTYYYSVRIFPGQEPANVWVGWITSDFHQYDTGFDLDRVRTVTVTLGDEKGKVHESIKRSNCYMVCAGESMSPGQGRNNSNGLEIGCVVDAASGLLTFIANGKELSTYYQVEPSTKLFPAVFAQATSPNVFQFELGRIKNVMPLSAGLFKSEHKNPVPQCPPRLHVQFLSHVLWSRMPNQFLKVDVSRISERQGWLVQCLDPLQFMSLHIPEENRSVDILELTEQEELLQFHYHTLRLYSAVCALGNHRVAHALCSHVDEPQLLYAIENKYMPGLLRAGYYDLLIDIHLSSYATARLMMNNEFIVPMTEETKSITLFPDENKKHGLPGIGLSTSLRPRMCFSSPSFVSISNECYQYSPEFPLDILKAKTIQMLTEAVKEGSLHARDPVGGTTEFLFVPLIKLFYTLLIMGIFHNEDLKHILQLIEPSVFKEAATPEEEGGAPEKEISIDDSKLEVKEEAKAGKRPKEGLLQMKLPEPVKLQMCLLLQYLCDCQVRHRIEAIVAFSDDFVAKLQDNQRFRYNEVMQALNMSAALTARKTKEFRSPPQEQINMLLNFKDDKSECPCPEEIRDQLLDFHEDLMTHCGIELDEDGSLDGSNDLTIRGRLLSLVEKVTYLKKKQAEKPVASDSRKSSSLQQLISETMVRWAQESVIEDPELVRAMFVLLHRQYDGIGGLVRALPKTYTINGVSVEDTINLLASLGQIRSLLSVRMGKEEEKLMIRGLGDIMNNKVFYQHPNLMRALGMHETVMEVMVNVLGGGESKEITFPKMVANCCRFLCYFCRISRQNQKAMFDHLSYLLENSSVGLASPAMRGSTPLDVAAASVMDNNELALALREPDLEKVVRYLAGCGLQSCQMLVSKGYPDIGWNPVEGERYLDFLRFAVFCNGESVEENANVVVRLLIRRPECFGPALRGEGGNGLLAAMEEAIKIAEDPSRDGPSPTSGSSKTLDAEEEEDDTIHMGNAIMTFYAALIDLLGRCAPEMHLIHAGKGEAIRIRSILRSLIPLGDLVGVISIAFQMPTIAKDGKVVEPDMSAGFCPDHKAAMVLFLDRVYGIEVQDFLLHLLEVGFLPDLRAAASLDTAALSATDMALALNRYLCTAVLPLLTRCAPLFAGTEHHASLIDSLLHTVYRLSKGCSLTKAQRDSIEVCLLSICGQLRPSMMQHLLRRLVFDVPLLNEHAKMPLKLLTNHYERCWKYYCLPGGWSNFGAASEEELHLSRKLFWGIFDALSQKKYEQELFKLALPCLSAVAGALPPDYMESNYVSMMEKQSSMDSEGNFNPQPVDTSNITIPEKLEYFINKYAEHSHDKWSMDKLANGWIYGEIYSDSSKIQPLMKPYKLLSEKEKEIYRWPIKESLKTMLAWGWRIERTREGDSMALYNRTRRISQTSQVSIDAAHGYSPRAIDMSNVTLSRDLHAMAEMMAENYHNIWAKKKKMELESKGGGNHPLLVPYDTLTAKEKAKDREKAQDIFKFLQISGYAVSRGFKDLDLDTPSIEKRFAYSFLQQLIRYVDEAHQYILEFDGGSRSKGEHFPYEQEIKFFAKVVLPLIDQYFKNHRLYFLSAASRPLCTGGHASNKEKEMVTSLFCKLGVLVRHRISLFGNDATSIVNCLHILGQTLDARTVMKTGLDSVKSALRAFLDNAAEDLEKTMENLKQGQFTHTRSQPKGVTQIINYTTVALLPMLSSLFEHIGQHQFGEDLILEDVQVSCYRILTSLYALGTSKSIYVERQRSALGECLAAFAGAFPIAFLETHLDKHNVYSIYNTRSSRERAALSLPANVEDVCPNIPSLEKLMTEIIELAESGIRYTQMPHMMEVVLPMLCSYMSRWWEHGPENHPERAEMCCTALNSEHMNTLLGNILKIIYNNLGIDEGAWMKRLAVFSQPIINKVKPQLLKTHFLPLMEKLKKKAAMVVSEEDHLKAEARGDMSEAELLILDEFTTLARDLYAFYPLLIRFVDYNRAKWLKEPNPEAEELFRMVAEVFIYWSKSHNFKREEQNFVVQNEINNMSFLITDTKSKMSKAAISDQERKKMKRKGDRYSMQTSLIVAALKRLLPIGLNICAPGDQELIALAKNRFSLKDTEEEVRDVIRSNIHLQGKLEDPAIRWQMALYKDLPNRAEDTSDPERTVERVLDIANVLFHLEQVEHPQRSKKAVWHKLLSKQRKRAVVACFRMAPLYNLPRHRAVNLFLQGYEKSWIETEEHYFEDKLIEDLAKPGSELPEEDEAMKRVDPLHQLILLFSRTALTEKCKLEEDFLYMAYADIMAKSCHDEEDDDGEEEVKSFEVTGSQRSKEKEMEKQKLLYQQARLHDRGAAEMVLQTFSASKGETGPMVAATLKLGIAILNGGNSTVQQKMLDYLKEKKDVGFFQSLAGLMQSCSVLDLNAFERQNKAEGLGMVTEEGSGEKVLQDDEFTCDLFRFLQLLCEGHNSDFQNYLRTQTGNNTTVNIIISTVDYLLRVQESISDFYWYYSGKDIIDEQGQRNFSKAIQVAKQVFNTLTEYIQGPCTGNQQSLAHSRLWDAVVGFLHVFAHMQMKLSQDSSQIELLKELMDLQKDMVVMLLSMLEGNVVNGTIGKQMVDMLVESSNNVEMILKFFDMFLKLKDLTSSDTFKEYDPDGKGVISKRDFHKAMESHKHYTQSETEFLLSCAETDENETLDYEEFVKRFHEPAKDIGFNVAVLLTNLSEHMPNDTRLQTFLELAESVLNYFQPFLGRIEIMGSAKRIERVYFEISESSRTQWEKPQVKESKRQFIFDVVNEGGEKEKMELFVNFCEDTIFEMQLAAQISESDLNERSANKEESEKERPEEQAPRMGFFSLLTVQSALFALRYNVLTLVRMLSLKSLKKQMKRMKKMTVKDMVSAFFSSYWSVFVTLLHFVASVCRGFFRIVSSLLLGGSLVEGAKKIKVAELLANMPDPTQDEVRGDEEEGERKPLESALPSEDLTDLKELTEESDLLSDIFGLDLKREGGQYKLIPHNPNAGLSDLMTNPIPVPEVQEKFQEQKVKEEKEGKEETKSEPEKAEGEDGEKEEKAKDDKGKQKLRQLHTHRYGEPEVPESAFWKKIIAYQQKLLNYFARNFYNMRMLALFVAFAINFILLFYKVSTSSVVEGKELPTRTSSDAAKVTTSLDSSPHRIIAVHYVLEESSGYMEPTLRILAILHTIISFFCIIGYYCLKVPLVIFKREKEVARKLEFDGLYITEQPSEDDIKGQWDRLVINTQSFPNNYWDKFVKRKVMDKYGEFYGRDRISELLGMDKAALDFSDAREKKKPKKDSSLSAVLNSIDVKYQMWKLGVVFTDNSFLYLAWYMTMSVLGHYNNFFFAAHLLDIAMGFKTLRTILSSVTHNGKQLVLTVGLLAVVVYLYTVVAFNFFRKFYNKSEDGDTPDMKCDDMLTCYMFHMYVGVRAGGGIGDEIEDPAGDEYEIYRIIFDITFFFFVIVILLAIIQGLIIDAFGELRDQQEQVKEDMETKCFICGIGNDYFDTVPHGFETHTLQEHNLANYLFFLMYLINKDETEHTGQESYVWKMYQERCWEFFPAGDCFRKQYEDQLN

Take “F-CaM pre-incubated in H2O2 (F-CaM^Ox) (from UniProt P0DP23 1-149) (natural protein)”: the percent reduction of specific Z-line binding against F-CaM that was not oxidized amounted to 20%.
